In patent US20200317776A1 (published 2020):
Where two headings read alike, the source gives them in different places.

T1: human TREM2 Fc fusion (entire TREM2 ECD; only one Fc arm fused to TREM2) (human, UniProt Q9NZC2 19-174)
T1 construct: also called huTREM2-Fc; recombinant hTREM2
T1 sequence: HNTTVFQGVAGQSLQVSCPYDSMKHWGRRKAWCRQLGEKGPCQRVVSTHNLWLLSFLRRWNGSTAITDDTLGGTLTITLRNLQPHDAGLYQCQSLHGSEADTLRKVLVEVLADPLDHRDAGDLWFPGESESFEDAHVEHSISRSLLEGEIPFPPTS

T2: human TREM2 expressed on cells (human, UniProt Q9NZC2 19-230)
T2 construct: BW5147.G.1.4 cells stably expressing human TREM2 together with Dap12, or endogenous TREM2 of primary human myeloid cells; also called huT2 BW; hTREM2 expressing cell line
T2 sequence: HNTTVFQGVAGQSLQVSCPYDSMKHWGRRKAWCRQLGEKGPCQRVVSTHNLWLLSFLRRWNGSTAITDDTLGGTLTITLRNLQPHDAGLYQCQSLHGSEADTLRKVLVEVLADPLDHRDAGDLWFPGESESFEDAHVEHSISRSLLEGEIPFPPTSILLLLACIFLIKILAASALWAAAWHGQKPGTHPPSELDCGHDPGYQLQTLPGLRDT

T3: cynomolgus monkey TREM2 Fc fusion (entire TREM2 ECD; only one Fc arm fused to TREM2) (cynomolgus monkey, UniProt Q9NZC2 19-174 (human entry))
T3 construct: also called cyno TREM2-Fc
T3 chain: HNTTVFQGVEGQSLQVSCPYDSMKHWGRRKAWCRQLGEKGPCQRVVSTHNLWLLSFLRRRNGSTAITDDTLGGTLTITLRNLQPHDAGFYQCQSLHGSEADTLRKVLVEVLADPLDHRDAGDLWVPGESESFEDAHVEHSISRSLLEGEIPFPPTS


Tests used:
[1] = target: T1, human TREM2 Fc fusion (entire TREM2 …); experiment: BLI, IgG, avid
Procedure, shortened: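 Avid format: AHQ-loaded IgGs exposed to 100 nM human or cyno TREM2-Fc antigen, 3 min association, 3 min dissociation in buffer. Monovalent format: human TREM2-Fc loaded on AHQ sensors, exposed to 100 nM Fab. Kinetics fit to 1:1 model, run at 25° C.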

[2] = target: T2, human TREM2 expressed on cells; experiment: FACS, human DCs
Procedure, shortened: (§1)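 Cells were BW5147.G.1.4 stably expressing human TREM2 with Dap12, or human monocyte-derived dendritic cells differentiated 6 days with GM-CSF and IL-4. Antibodies bound 1 h on ice in PBS+2% FBS, then PE anti-human secondary 30 min on ice; flow cytometry read-out as mean fluorescence intensity.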

[3] = target: T1, human TREM2 Fc fusion (entire TREM2 …); experiment: BLI, Fab, monovalent
[4] = target: T3, cynomolgus monkey TREM2 Fc fusion …; experiment: BLI, Fab, monovalent
[5] = target: T2, human TREM2 expressed on cells; experiment: FACS, hTREM2 BW cells
Procedure, shortened: as §1

[6] = target: T2, human TREM2 expressed on cells; experiment: FACS, hTREM2 BW cells; remark: listed apart in the source
[7] = target: T2, human TREM2 expressed on cells; experiment: cell-based or functional assay
[8] = target: T4, human TREM2/DAP12 fusion protein (human, UniProt O43914 41-113, limits assumed); experiment: cell-based or functional assay
[9] = target: T4, human TREM2/DAP12 fusion protein; experiment: cell-based or functional assay; remark: listed apart in the source
[10] = target: T2, human TREM2 expressed on cells; experiment: cell-based or functional assay; remark: listed apart in the source
[11] = target: T1, human TREM2 Fc fusion (entire TREM2 …); experiment: BLI, Fab, monovalent; remark: listed apart in the source
Experimental: Briefly, IgG's were loaded on-line onto AHQ sensors. Sensors were equilibrated off-line in assay buffer for 30 minutes and then monitored on-line for 60 seconds for baseline establishment. For avid binding measurement, sensors with loaded IgGs were exposed to 100 nM antigen (human TREM2 Fc fusion using the entire TREM2 ECD; only one Fc arm was fused to TREM2) for 3 minutes, afterwards they were transferred to assay buffer for 3 minutes for off-rate measurement. Monovalent binding measurements were obtained by loading human TREM2 Fe fusion antigens to AHQ sensor and followed by exposure to 100 nM TREM2 antibody Fab. Kinetics data were fit using a 1:1 binding model in the data analysis software provided by ForteBio. Assay was run at room temperature (25° C.).

[12] = target: T2, human TREM2 expressed on cells; experiment: FACS, hTREM2 BW cells; remark: listed apart in the source
Experimental: To examine cell binding of anti-TREM2 antibodies, recombinant, human TREM2-expressing BW5147.G.1.4 cells (ATCC® TIB48™) were established by stably expressing either mouse TREM2 or human TREM2 together with Dap12 using viral infection. Cells were harvested by scraping, washed in PBS, counted and plated on 96-well U bottom plates at 1)(10⁵ cells/well. The plates were spun at 1,400 rpm for 3 minutes and primary anti-TREM2 or control antibodies were added in FACS buffer (PBS H2% FBS) and incubated on ice for one hour. Cells were subsequently centrifuged as before and washed thrice with FACS buffer. Cells were then incubated with anti-human PE conjugated secondary antibody (BD Biosciences) in FACS buffer for 30 minutes on ice. Cells were again washed thrice with FACS buffer and analyzed on a BD FACS Canto. Binding was measured as mean fluorescence intensity in the APC channel.

[13] = target: T4, human TREM2/DAP12 fusion protein; experiment: cell-based or functional assay; remark: listed apart in the source
[14] = target: T4, human TREM2/DAP12 fusion protein; experiment: cell-based or functional assay; remark: listed apart in the source

T4 sequence (O43914 other isoform, or with tags, fused parts or gaps limits assumed): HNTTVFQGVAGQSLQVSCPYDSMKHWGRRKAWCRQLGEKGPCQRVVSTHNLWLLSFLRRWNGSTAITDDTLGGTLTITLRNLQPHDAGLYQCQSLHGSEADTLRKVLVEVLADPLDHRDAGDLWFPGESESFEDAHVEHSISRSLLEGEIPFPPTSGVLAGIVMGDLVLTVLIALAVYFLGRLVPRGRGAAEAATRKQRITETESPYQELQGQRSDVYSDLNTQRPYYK

Row | Binder | Kd [1] [nM] | Kd [3] [nM] | Kd [4] [nM] | Kd [5] [nM] | Bmax (MFI) [6] [MFI] | Kd [6] [nM] | Luciferase activation plate bound 33 nM IgG, FOC [8] [FOC] | Luciferase activation soluble 10 nM IgG, FOC [8] [FOC] | Plate bound IgG, fold over unstimulated control (25 nM IgG) [9] [fold] | Soluble IgG, EC50 [9] [nM] | Soluble IgG, fold over control IgG (17 nM IgG) [9] [fold] | luciferase activation, soluble IgG, EC50 [14] [nM] | Survival huDCs plate bound IgG, AUC [7] [AUC] | EC50 viability, dendritic cells D558 [10] [nM] | EC50 viability, dendritic cells D559 [10] [nM] | EC50 viability, dendritic cells D560 [10] [nM] | EC50 viability, macrophages D558 [10] [nM] | EC50 viability, macrophages D559 [10] [nM] | EC50 viability, macrophages D560 [10] [nM] | also measured
1 | AL2p-47 huIgG1 (antibody, V domains shown) VH: QVQLVQSGAEVKKPGSSVKVSCKASGYAFSSDWMNWVRQAPGQGLEWMGRIYPGEGDTNYARKFHGRVTITADESTSTAYMELSSLRSEDTAVYYCARLLRNKPGESYAMDYWGQGTLVTVSS VL: DVVMTQTPLSLSVTPGQPASISCRTSQSLVHSNAYTYLHWYLQKPGQSPQLLIYKVSNRVSGVPDRFSGSGSGTDFTLKISRVEAEDVGVYYCSQSTRVPYTFGQGTKLEIKR |  |  |  |  | 226000 | 1.2 |  |  | 3.94 | 6.5 | 8.77 |  |  | 1.02 | 1.13 | 0.672 | 0.013 | 1.56 | 1.25 | 
2 | AL2p huIgG1 (human mouse chimeric parental antibody) (antibody, V domains shown, Mouse variable region with human IgG1 Fc region; Fab and IgG formats under one id; also called chimeric parental AL2p antibody as huIgG1) VH: QVQLQQSGPELVKPGASLKISCKASGYAFSSSWMNWVKQRPGKGLEWIGRIYPGDGDTNYNGEFRVRATLTADTSSTTAYMQLSSLTSEDSAVYFCARLLRNQPGESYAMDYWGQGASVTVSS VL: DVVMTQTPLSLPVSLGDQASISCRSSQSLVHSNGYTYLHWYLQKPGQSPKLLIYKVSNRFSGVPDRFSGSGSGTDFTLKISRVEADDLGVYFCSQSTRVPYTFGGGTKLEIK |  |  |  |  | 199000 | 1.32 |  |  | 1.29 | 14.6 | 4.51 |  |  | 95.7 | 41.2 | 55.1 | 12.3 | 146 | 129 | Kd [11]: 102 nM; cell binding (FOB) [12]: 79 FOB; Soluble luciferase activation at 10 µg/ml Fold over control [13]: 3.55 fold over control
3 | AL2p-h50 (antibody, human IgG1, V domains shown, humanized, human IgG1; Fab and IgG formats under one id) VH: QVQLVQSGAEVKKPGSSVKVSCKASGYAFSSSWMNWVRQAPGQGLEWMGRIYPGDGDTNYAQKFQGRVTITADESTSTAYMELSSLRSEDTAVYYCARLLRNQPGESYAMDYWGQGTLVTVSS VL: DVVMTQTPLSLSVTPGQPASISCRSSQSLVHSNGYTYLHWYLQKPGQSPQLLIYKVSNRFSGVPDRFSGSGSGTDFTLKISRVEAEDVGVYYCSQSTRVPYTFGQGTKLEIK | 1.19 | 112 | 7700 | 3.7 |  |  | 6.83 | 1.26 |  |  |  | 63.1 | 337000 |  |  |  |  |  |  | MFI [2]: 26 MFI; Kd [11]: 180 nM; cell binding (FOB) [12]: 78 FOB; Soluble luciferase activation at 10 µg/ml Fold over control [13]: 6.36 fold over control
4 | AL2p-2 (antibody, V domains shown, AL2p-h50 variant; Fab and IgG formats under one id) VH: QVQLVQSGAEVKKPGSSVKVSCKASGYAFSSSWMNWVRQAPGQGLEWMGRIYPGGGDTNYAQKFQGRVTITADESTSTAYMELSSLRSEDTAVYYCARLLRNQPGESYAMDYWGQGTLVTVSS VL: DVVMTQTPLSLSVTPGQPASISCRSSQSLVHSNGYTYLHWYLQKPGQSPQLLIYKVSNRFSGVPDRFSGSGSGTDFTLKISRVEAEDVGVYYCSQSTRVPYTFGQGTKLEIK | 0.837 | 63.3 | 1400 | 2.2 |  |  | 7.36 | 1.7 |  |  |  | 23 | 461000 |  |  |  |  |  |  | 

Further lines, with some results ahead:

Row | Kd [1] [nM] | Kd [3] [nM] | Kd [4] [nM] | Kd [5] [nM] | Bmax (MFI) [6] [MFI] | Kd [6] [nM] | Luciferase activation plate bound 33 nM IgG, FOC [8] [FOC] | Luciferase activation soluble 10 nM IgG, FOC [8] [FOC] | Plate bound IgG, fold over unstimulated control (25 nM IgG) [9] [fold] | Soluble IgG, EC50 [9] [nM] | Soluble IgG, fold over control IgG (17 nM IgG) [9] [fold] | luciferase activation, soluble IgG, EC50 [14] [nM] | Binder | Survival huDCs plate bound IgG, AUC [7] [AUC] | EC50 viability, dendritic cells D558 [10] [nM] | EC50 viability, dendritic cells D559 [10] [nM] | EC50 viability, dendritic cells D560 [10] [nM] | EC50 viability, macrophages D558 [10] [nM] | EC50 viability, macrophages D559 [10] [nM] | EC50 viability, macrophages D560 [10] [nM] | also measured
5 | 0.779 | 23.8 | 16.1 | 2.9 | 216000 | 1.17 | 9.42 | 2.16 | 1.56 | 9.41 | 7.63 |  | AL2p-37 (antibody, IgG1, V domains shown, Fab and IgG formats under one id; also called AL2p-37 huIgG1) VH: QVQLVQSGAEVKKPGASVKVSCKASGYAFSSQWMNWVRQAPGQRLEWIGRIYPGGGDTNYAGKFQGRVTITADTSASTAYMELSSLRSEDTAVYYCARLLRNQPGESYAMDYWGQGTLVTVSS VL: DVVMTQSPDSLAVSLGERATINCRSSQSLVHSNGYTYLHWYQQKPGQSPKLLIYKVSNRFSGVPDRFSGSGSGTDFTLTISSLQAEDVAVYYCSQSTRVPYTFGGGTKVEIK | 680000 | 4.19 | 6.16 | 4.47 | 1.24 | 18.3 | 31.8 | MFI [2]: 194 MFI
6 |  |  |  |  | 211000 | 0.42 |  |  | 8.97 | 5.24 | 10.8 |  | AL2p-61 huIgG1 (antibody, V domains shown) VH: QVQLVQSGAEVKKPGSSVKVSCKASGYAFSSQWMNWVRQAPGQGLEWMGRIYPGEGDTNYARKFQGRVTITADESTSTAYMELSSLRSEDTAVYYCARLLRNQPGESYAMDYWGQGTLVTVSS VL: GVVMTQTPLSLSVTPGQPASISCRSSQSLVHSNQYTYLHWYLQKPGQSPQLLIYKVSNRRSGVPDRFSGSGSGTDFTLKISRVEAEDVGVYYCSQSTRVPYTFGQGTKLEIKR |  |  |  |  |  |  |  | 
7 |  |  |  |  |  |  | 7.42 | 1.45 |  |  |  | 66.2 | AL2p-4 (antibody, V domains shown) VH: QVQLVQSGAEVKKPGSSVKVSCKASGYAFSSSWMNWVRQAPGQGLEWMGRIYPGQGDTNYAQKFQGRVTITADESTSTAYMELSSLRSEDTAVYYCARLLRNQPGESYAMDYWGQGTLVTVSS VL: DVVMTQTPLSLSVTPGQPASISCRSSQSLVHSNGYTYLHWYLQKPGQSPQLLIYKVSNRFSGVPDRFSGSGSGTDFTLKISRVEAEDVGVYYCSQSTRVPYTFGQGTKLEIK |  |  |  |  |  |  |  | 
